Ends that are not written are not given here. * marks the point of attachment. NBD = O=[N+]([O-])c1ccc(*)c2nonc12
T1: NBD-labeled core peptide of the TCRα TMD (GLRILLLKV; SEQ ID NO: 14)
T1 construct: also called NBD-CP; CP
T1 peptide: {NBD}-GLRILLLKV


What was measured:
[1] = target: T1, NBD-labeled core peptide of the TCRα …; assay: NBD fluorescence of NBD-CP on PC:Chol LUVs, sequential doses of unlabeled peptide
[2] = target: T2, TCR of MOG35-55-specific murine line T cells (mMOG35-55 T cells) (mouse, UniProt A2KF29); assay: cell-based or functional assay
T2 sequence (A2KF29 whole entry): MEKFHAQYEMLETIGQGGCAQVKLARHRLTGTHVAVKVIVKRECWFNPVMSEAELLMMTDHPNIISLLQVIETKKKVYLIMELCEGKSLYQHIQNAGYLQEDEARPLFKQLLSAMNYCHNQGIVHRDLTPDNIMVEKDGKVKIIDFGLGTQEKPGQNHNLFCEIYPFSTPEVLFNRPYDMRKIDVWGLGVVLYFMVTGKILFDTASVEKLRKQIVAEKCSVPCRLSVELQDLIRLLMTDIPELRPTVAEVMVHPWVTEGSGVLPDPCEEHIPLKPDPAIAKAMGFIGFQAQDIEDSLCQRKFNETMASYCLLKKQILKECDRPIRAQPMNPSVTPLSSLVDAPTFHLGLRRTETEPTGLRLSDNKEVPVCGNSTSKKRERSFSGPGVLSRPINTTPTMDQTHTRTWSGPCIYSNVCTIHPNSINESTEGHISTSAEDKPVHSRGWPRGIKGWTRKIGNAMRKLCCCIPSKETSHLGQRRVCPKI

[3] = target: T2, TCR of MOG35-55-specific murine line T …; assay: cell-based or functional assay; remark: listed apart in the source

Row | Binder | binding result [1] | IC50 (µM), inhibition of MOG35-55-specific T-cell proliferation [2] | inhibitory concentration at 50% proliferation (IC50), MOG35-55-specific T-cell proliferation [3]
1 | SNKSLEQIWNHTTWMGWG (pep 6 with the conserved acidic residues (Glu and Asp) mutated to Gly) [control mutant peptide (SNKSLEQIWNHTTWMGWG, SEQ ID NO: 10), unlabeled] | binds | – | –
2 | SNKSLEQIWNHTTWMEWD [pep 6 (SNKSLEQIWNHTTWMEWD), gp41 derived peptide, unlabeled] | binds | 0.55 µM | 1000 nM
3 | SNKSLEQIGNHTTGMEGD (Unlabeled form used in the NBD-CP fluorescence experiment) [control mutant (W/G) peptide (SNKSLEQIGNHTTGMEGD, SEQ ID NO: 9), unlabeled] | binds | – | –
